Earlier results as cited in paper PMC2921697.

Assays:
[1] = biological target: Barnase (denatured) (Bacillus amyloliquefaciens) (UniProt P00648); test: H/D exchange NMR
[2] = biological target: prion protein (denatured recombinant) (UniProt P04156)

Substance | Kd [1] | Kd [2]
SecB (from UniProt P0AG86) | 50 nM | 
GroEL (from UniProt P0A6F5) | 50 nM | 
Hsp60 (from UniProt P10809) |  | 1.5 nM
